From patent US8772229B2, “Methods for synthesis and uses of inhibitors of ghrelin O-acyltransferase as potential therapeutic agents for obesity and diabetes” (The Johns Hopkins University, priority 2008, dated 2014)

Assays:
[1] = Blood chemistries and blood cell counts after 12 days of treatment; type: in vivo, mice; conditions: 12 day treatment
Source text: To investigate the potential for GO-CoA-Tat induced generalized toxicity or organ damage as a source of weight loss, we assessed the blood chemistries and blood cell counts in the 12 day GO-CoA-Tat treated animals.

HEPG2 cell = assay: Cell viability assay (LIVE/DEAD), HepG2 cells; type: cell-based, human; conditions: 10 μM, 24 hr incubation
Procedure: (§1) The viability of the HEL cell line and the human immortalized hepatocyte cell line HepG2 (ATCC, Manassas, Va.) treated with the varying concentrations of GO-CoA-Tat was determined using a LIVE/DEAD viability assay kit (Molecular Probes). […] were incubated with two probes, 2 μM calcein-AM (green color) for 30 min and 4 μM ethidium homodimer-1 (EtdD-1, bright red color) for 10 min, for intracellular esterase activity and plasma membrane integrity, respectively. Calcein-AM was excited using the 500 nm laser line, and the emitted fluorescence was detected through a 535 nm long-pass filter. EtdD-1 was excited using the 514 nm laser line, and the emitted fluorescence was detected through a 550 nm long-pass filter. Red fluorescent (EtdD-1) cells were counted as dead, and green fluorescent (Calcein-AM) were counted as viable. In cases of dual partial red and green staining, cells were counted as dead.

PCAF HAT = target: T1, PCAF HAT (Homo sapiens, UniProt Q92831); assay: Acetyltransferase specificity assay (α-KGDH coupled), PCAF; type: biochemical
T1 construct: Recombinant acetyltransferase domains and histone tail peptides were prepared as described previously (38-40); made in house
T1 sequence (Q92831 503-651 limits assumed): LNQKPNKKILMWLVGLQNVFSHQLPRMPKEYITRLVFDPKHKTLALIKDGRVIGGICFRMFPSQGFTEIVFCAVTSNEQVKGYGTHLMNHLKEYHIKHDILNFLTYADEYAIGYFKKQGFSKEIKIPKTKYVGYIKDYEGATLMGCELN
Procedure: (§2) The specificity of GO-CoA-Tat with the acetyltransferases p300, PCAF, and AANAT was measured using an α-ketoglutarate dehydrogenase (α-KGDH) coupled spectrophotometric assay (37). Recombinant acetyltransferase domains and histone tail peptides were prepared as described previously (38-40). The production of CoASH by the acetyltransferase is coupled to the formation of NADH, which is monitored at 340 nm (ε340=6230 M^−1 cm^−1) in a Beckman DU-640 spectrophotometer. All reactions contain 200 μM thiamine pyrophosphate, 5 mM MgCl2, 1 mM DTT, 50 μg/mL BSA, 200 μM NAD, 2.4 mM α-ketoglutarate, 10 μM GO-CoA-Tat, and 50 μM acetyl-CoA. Reactions with p300 were performed in 100 mM HEPES, pH 7.9, and contain 0.1 units α-KGDH and 200 μM H4-15, a 15-mer peptide substrate based on the sequence of the histone H4 tail. p300 reactions are incubated at 30° C. prior to initiation with addition of 100 nM p300 and take place at 30° C. Reactions with PCAF are performed in 100 mM HEPES, pH 7.9, and contain 0.037 units α-KGDH and 100 μM H3-20, a 20-mer peptide substrate based on the sequence of the histone H3 tail. PCAF reactions are incubated at 30° C. for 10 minutes prior to initiation with addition of 100 nM PCAF and take place at 30° C. Reactions with AANAT are performed in 100 mM NH4OAc, pH 6.8, and contain 0.1 units α-KGDH and 200 μM tryptamine. […]

[2] = target: T2, serotonin N-acetyltransferase (Ovis aries, UniProt Q29495); assay: Acetyltransferase specificity assay (α-KGDH coupled), AANAT; type: biochemical
T2 construct: Recombinant acetyltransferase domains and histone tail peptides were prepared as described previously (38-40); made in house
T2 sequence (Q29495 35-196 limits assumed): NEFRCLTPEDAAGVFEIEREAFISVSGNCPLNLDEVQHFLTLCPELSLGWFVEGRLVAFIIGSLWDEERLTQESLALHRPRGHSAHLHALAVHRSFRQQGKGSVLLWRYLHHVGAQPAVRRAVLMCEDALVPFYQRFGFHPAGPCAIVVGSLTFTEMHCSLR
Procedure: as §2

p300 HAT = target: T3, p300 HAT (Homo sapiens, UniProt Q09472); assay: Acetyltransferase specificity assay (α-KGDH coupled), p300; type: biochemical
T3 construct: Recombinant acetyltransferase domains and histone tail peptides were prepared as described previously (38-40); made in house
T3 sequence (Q09472 1287-1663 limits assumed): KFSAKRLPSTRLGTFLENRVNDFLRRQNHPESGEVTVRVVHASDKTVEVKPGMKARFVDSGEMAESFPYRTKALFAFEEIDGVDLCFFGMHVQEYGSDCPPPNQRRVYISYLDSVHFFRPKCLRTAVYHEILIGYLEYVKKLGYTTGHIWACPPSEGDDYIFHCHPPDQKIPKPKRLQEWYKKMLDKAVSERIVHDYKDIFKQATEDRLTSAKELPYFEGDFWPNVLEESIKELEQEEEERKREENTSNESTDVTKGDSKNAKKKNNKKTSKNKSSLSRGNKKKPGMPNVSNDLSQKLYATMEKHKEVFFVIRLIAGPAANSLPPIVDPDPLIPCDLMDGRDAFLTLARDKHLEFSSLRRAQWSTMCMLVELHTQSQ
Procedure: as §2

HEL cell = assay: Cell viability assay (LIVE/DEAD), HEL cells; type: cell-based, human; conditions: 10 μM, 24 hr incubation
Procedure: as §1

SMILES: CCCCCCC(SCCNC(=O)CCNC(=O)[C@H](O)C(C)(C)COP(=O)(O)OP(=O)(O)OC[C@H]1O[C@@H](n2cnc3c(N)ncnc32)[C@H](O)[C@@H]1OP(=O)(O)O)C(=O)NC[C@H](NC(=O)[C@H](CO)NC(=O)CN)C(=O)N[C@@H](Cc1ccccc1)C(=O)N[C@@H](CC(C)C)C(=O)N[C@@H](CO)C(=O)N1CCC[C@H]1C(=O)N[C@@H](CCC(=O)O)C(=O)N[C@@H](Cc1c[nH]cn1)C(=O)N[C@@H](CCC(N)=O)C(=O)NCCCCCC(=O)N[C@@H](Cc1ccc(O)cc1)C(=O)NCC(=O)N[C@@H](CCCNC(=N)N)C(=O)N[C@@H](CCCCN)C(=O)N[C@@H](CCCCN)C(=O)N[C@@H](CCCNC(=N)N)C(=O)N[C@@H](CCCNC(=N)N)C(=O)N[C@@H](CCC(N)=O)C(=O)N[C@@H](CCCNC(=N)N)C(=O)N[C@@H](CCCNC(=N)N)C(=O)N[C@@H](CCCNC(=N)N)C(=O)O (some centres unmarked) [GO-CoA-Tat]
- organ toxicity from blood chemistries and blood cell counts ([1]; 29 mg/kg IP daily): no evidence of liver, renal, pancreas, or bone marrow toxicities
- HDL ([1]; vs. D4-Tat): small but significant increases
- triglycerides ([1]; vs. D4-Tat): small but significant increases
- HEPG2 cell viability (HEPG2 cell): non-toxic
- inhibition at 10 µM (PCAF HAT): < 15%
- inhibition at 10 µM [2]: < 15%
- inhibition at 10 µM (p300 HAT): < 15%
- HEL cell viability (HEL cell): non-toxic
